Results published in patent US20160143998A1 (Novo Nordisk, published 2016).
*1 amine or outer side, *2 acyl side, *3 side chain or, on linkers, in order; H or OH if unused. Where no end group is shown, it is not given here. Side-chain parts run from the residue outwards. [ ]: non-standard residue; d: D form. The star is where a group is joined. code 2xAEEA = O=C(COCCOCCN[*:1])NCCOCCOCC(=O)[*:2]; C20 diacid = O=C(O)CCCCCCCCCCCCCCCCCCC(=O)*; γGlu = O=C(O)[C@H](CCC(=O)[*:2])N[*:1]; Desaminohistidyl = O=C(CCc1c[nH]cn1)*; Trx = NC[C@H]1CC[C@H](C(=O)O)CC1; code LysOEG = not defined here; Lys(Bis) = not defined here; AEEA = NCCOCCOCC(=O)O; Aib = CC(C)(N)C(=O)O

B1: [Imp7,Aib8,Glu22,Arg26,Arg34]-GLP-1-(7-37)-peptidyl-Gly-N{Epsilon}[(2S)-2,6-bis[[2-[2-[2-[[2-[2-[2-[[2-[2-[2-[[2-[2-[2-[[(4S)-4-carboxy-4-[[4-[(19-carboxynonade … (peptide)
peptide: [Desaminohistidyl][Aib]EGTFTSDVSSYLEEQAAREFIAWLVRGRGGK([Lys(Bis)-code 2xAEEA-AEEA-AEEA-AEEA-γGlu-Trx-C20 diacid])
modifications: reading uncertain; also: printed as [Imp7,Aib8,Glu22,Arg26,Arg34]-GLP-1-(7-37)-peptidyl-Gly-N{Epsilon}[(2S)-2,6-bis[[2-[2-[2-[[2-[2-[2-[[2-[2-[2-[[2-[2-[2-[[(4S)-4-carboxy-4-[[4-[(19-carboxynonadecanoylamino)methyl]cyclohexanecarbonyl]amino]butanoyl]amino]ethoxy]ethoxy]acetyl]amino]ethoxy]ethoxy]acetyl]amino]ethoxy]ethoxy]acetyl]amino]ethoxy]ethoxy]acetyl]amino]hexanoyl]Lys
notes: Side chain read from the name: eps-Lys(Bis) branched linker, each leg C20 diacid-Trx-gGlu-4xOEG
B2: [Aib8,Glu22,Arg26,Arg34]-GLP-1-(7-37)-peptidyl-Gly-Gly-Ser-N{Epsilon}[(2S)-2,6-bis[[2-[2-[2-[[2-[2-[2-[[(4S)-4-carboxy-4-[[4-[(19-carboxynonadecanoylamino)methy … (peptide)
peptide: H[Aib]EGTFTSDVSSYLEEQAAREFIAWLVRGRGGGSK([code LysOEG-AEEA-γGlu-Trx-C20 diacid)(OEG-AEEA-γGlu-Trx-C20 diacid])
modifications: reading uncertain; also: printed as [Aib8,Glu22,Arg26,Arg34]-GLP-1-(7-37)-peptidyl-Gly-Gly-Ser-N{Epsilon}[(2S)-2,6-bis[[2-[2-[2-[[2-[2-[2-[[(4S)-4-carboxy-4-[[4-[(19-carboxynonadecanoylamino)methyl]cyclohexanecarbonyl]amino]butanoyl]amino]ethoxy]ethoxy]acetyl]amino]ethoxy]ethoxy]acetyl]amino]hexanoyl]Lys
notes: Side chain read from the name: eps-Lys(Bis) branched linker, each leg C20 diacid-Trx-gGlu-2xOEG
B3: [Aib8,Glu22,Arg26,Arg34]-GLP-1-(7-37)-peptidyl-Ser-N{Epsilon}[(2S)-2,6-bis[[2-[2-[2[[2-[2-[2-[[(4S)-4-carboxy-4-[[4-[(19-carboxynonadecanoylamino)methyl]cyclohe … (peptide)
peptide: H[Aib]EGTFTSDVSSYLEEQAAREFIAWLVRGRGSK([Lys(Bis)-code 2xAEEA-AEEA-γGlu-Trx-C20 diacid])
modifications: reading uncertain; also: printed as [Aib8,Glu22,Arg26,Arg34]-GLP-1-(7-37)-peptidyl-Ser-N{Epsilon}[(2S)-2,6-bis[[2-[2-[2[[2-[2-[2-[[(4S)-4-carboxy-4-[[4-[(19-carboxynonadecanoylamino)methyl]cyclohexanecarbonyl]amino]butanoyl]amino]ethoxy]ethoxy]acetyl]amino]ethoxy]ethoxy]acetyl]amino]hexanoyl]Lys
notes: as for B2
B4: [Aib8,Glu22,Arg26,Arg34]-GLP-1-(7-37)-peptidyl-Ser-Ser-Gly-Ala-Pro-N{Epsilon}[(2S)-2,6-bis[[2-[2-[2-[[2-[2-[2-[[(4S)-4-carboxy-4-[[4-[(19-carboxynonadecanoylami … (peptide)
peptide: H[Aib]EGTFTSDVSSYLEEQAAREFIAWLVRGRGSSGAPK([Lys(Bis)-code 2xAEEA-AEEA-γGlu-Trx-C20 diacid])
modifications: reading uncertain
notes: as for B2
B5: [Aib8,Glu22,Arg26,Arg34]-GLP-1-(7-37)-peptidyl-Ser-Ser-Glu-Ala-Glu-N{Epsilon}[(2S)-2,6-bis[[2-[2-[2-[[2-[2-[2-[[(4S)-4-carboxy-4-[[4-[(19-carboxynonadecanoylami … (peptide)
peptide: H[Aib]EGTFTSDVSSYLEEQAAREFIAWLVRGRGSSEAEK([Lys(Bis)-code 2xAEEA-AEEA-γGlu-Trx-C20 diacid])
modifications: reading uncertain
notes: as for B2
B6: [Aib8,Glu22,Arg26,Arg34]-GLP-1-(7-37)-peptidyl-Ser-Ser-Ala-Glu-Gly-N{Epsilon}[(2S)-2,6-bis[[2-[2-[2-[[2-[2-[2-[[(4S)-4-carboxy-4-[[4-[(19-carboxynonadecanoylami … (peptide)
peptide: H[Aib]EGTFTSDVSSYLEEQAAREFIAWLVRGRGSSAEGK([Lys(Bis)-code 2xAEEA-AEEA-γGlu-Trx-C20 diacid])
modifications: reading uncertain
notes: as for B2
B7: [Aib8,Glu22,Arg26,Arg34]-GLP-1-(7-37)-peptidyl-Ser-Ser-Pro-Ala-Ala-N{Epsilon}[(2S)-2,6-bis[[2-[2-[2-[[2-[2-[2-[[(4S)-4-carboxy-4-[[4-[(19-carboxynonadecanoylami … (peptide)
peptide: H[Aib]EGTFTSDVSSYLEEQAAREFIAWLVRGRGSSPAAK([Lys(Bis)-code 2xAEEA-AEEA-γGlu-Trx-C20 diacid])
modifications: reading uncertain
notes: as for B2
B8: [Aib8,Glu22,Arg26,Arg34]-GLP-1-(7-37)-peptidyl-Pro-Ala-Glu-Glu-N{Epsilon}[(2S)-2,6-bis[[2-[2-[2-[[2-[2-[2-[[(4S)-4-carboxy-4-[[4-[(19-carboxynonadecanoylamino)m … (peptide)
peptide: H[Aib]EGTFTSDVSSYLEEQAAREFIAWLVRGRGPAEEK([Lys(Bis)-code 2xAEEA-AEEA-γGlu-Trx-C20 diacid])
modifications: reading uncertain
notes: as for B2
B9: N{Alpha}([Aib8,Glu22,Arg26,Arg34]-GLP-1-(7-37)-peptidyl)-N{Epsilon}[(2S)-2,6-bis[[2-[2-[2-[[2-[2-[2-[[(4S)-4-carboxy-4-(19-carboxynonadecanoylamino)butanoyl]ami … (peptide)
peptide: H[Aib]EGTFTSDVSSYLEEQAAREFIAWLVRGRGK([code LysOEG-AEEA-γGlu-C20 diacid)(OEG-AEEA-γGlu-C20 diacid])
modifications: reading uncertain; also: printed as N{Alpha}([Aib8,Glu22,Arg26,Arg34]-GLP-1-(7-37)-peptidyl)-N{Epsilon}[(2S)-2,6-bis[[2-[2-[2-[[2-[2-[2-[[(4S)-4-carboxy-4-(19-carboxynonadecanoylamino)butanoyl]amino]ethoxy]ethoxy]acetyl]amino]ethoxy]ethoxy]acetyl]amino]hexanoyl]Lys
notes: Side chain read from the name: eps-Lys(Bis) branched linker, each leg C20 diacid-gGlu-2xOEG
B10: [Aib8,Glu22,Arg26,Arg34]-GLP-1-(7-37)-peptidyl-Ala-Glu-Ala-Pro-N{Epsilon}[(2S)-2,6-bis[[2-[2-[2-[[2-[2-[2-[[(4S)-4-carboxy-4-[[4-[(19-carboxynonadecanoylamino)m … (peptide)
peptide: H[Aib]EGTFTSDVSSYLEEQAAREFIAWLVRGRGAEAPK([code LysOEG-AEEA-γGlu-Trx-C20 diacid)(OEG-AEEA-γGlu-Trx-C20 diacid])
modifications: reading uncertain
notes: as for B2
B11: N{Alpha}([Aib8,Glu22,Arg26,Arg34]-GLP-1-(7-37)-peptidyl)-N{Epsilon}[(2S)-2,6-bis[[2-[2-[2-[[2-[2-[2-[[(4S)-4-carboxy-4-[[1-(19-carboxynonadecanoyl)piperidine-4- … (peptide)
peptide: H[Aib]EGTFTSDVSSYLEEQAAREFIAWLVRGRGK
modifications: not fully specified (residue 32); printed as N{Alpha}([Aib8,Glu22,Arg26,Arg34]-GLP-1-(7-37)-peptidyl)-N{Epsilon}[(2S)-2,6-bis[[2-[2-[2-[[2-[2-[2-[[(4S)-4-carboxy-4-[[1-(19-carboxynonadecanoyl)piperidine-4-carbonyl]amino]butanoyl]amino]ethoxy]ethoxy]acetyl]amino]ethoxy]ethoxy]acetyl]amino]hexanoyl]Lys
notes: Side chain read from the name: eps-Lys(Bis) branched linker, each leg C20 diacid-Inp-gGlu-2xOEG
B12: [Aib8,Glu22,Arg26,Arg34]-GLP-1-(7-37)-peptidyl-Glu-Pro-Pro-Gly-N{Epsilon}[(2S)-2,6-bis[[2-[2-[2-[[2-[2-[2-[[(4S)-4-carboxy-4-[[4-[(19-carboxynonadecanoylamino)m … (peptide)
peptide: H[Aib]EGTFTSDVSSYLEEQAAREFIAWLVRGRGEPPGK([code LysOEG-AEEA-γGlu-Trx-C20 diacid)(OEG-AEEA-γGlu-Trx-C20 diacid])
modifications: reading uncertain
notes: as for B2
B13: [Aib8,Glu22,Arg26,Arg34]-GLP-1-(7-37)-peptidyl-Gly-Gly-Gly-Ser-N{Epsilon}[(2S)-2,6-bis[[2-[2-[2-[[2-[2-[2-[[(4S)-4-carboxy-4-[[4-[(19-carboxynonadecanoylamino)m … (peptide)
peptide: H[Aib]EGTFTSDVSSYLEEQAAREFIAWLVRGRGGGGSK([code LysOEG-AEEA-γGlu-Trx-C20 diacid)(OEG-AEEA-γGlu-Trx-C20 diacid])
modifications: reading uncertain
notes: as for B2
B14: N{Alpha}([Aib8,Glu22,Arg26,Arg34]-GLP-1-(7-37)-peptidyl)-N{Epsilon}[(2S)-2,6-bis[[2-[2-[2-[[2-[2-[2-[[(4S)-4-carboxy-4-[[4-[(19-carboxynonadecanoylamino)methyl] … (peptide)
peptide: H[Aib]EGTFTSDVSSYLEEQAAREFIAWLVRGRGK([code LysOEG-AEEA-γGlu-Trx-C20 diacid)(OEG-AEEA-γGlu-Trx-C20 diacid])
modifications: reading uncertain; also: printed as N{Alpha}([Aib8,Glu22,Arg26,Arg34]-GLP-1-(7-37)-peptidyl)-N{Epsilon}[(2S)-2,6-bis[[2-[2-[2-[[2-[2-[2-[[(4S)-4-carboxy-4-[[4-[(19-carboxynonadecanoylamino)methyl]cyclohexanecarbonyl]amino]butanoyl]amino]ethoxy]ethoxy]acetyl]amino]ethoxy]ethoxy]acetyl]amino]hexanoyl]Lys
notes: as for B2
B15: N{Alpha}([Aib8,Glu22,Arg26,Arg34,Pro37]-GLP-1-(7-37)-peptidyl)-N{Epsilon}[(2S)-2,6-bis[[2-[2-[2-[[2-[2-[2-[[2-[2-[2-[[2-[2-[2-[[2-[2-[2-[[2-[2-[2-[[(4S)-4-carbo … (peptide)
peptide: H[Aib]EGTFTSDVSSYLEEQAAREFIAWLVRGRPK([code LysOEG-AEEA-AEEA-AEEA-AEEA-AEEA-γGlu-Trx-C20 diacid)(OEG-AEEA-AEEA-AEEA-AEEA-AEEA-γGlu-Trx-C20 diacid])
modifications: reading uncertain
notes: Side chain read from the name: eps-Lys(Bis) branched linker, each leg C20 diacid-Trx-gGlu-6xOEG
B16: [Aib8,Glu22,Arg26,Arg34]-GLP-1-(7-37)-peptidyl-Gly-Ser-N{Epsilon}[(2S)-2,6-bis[[2-[2-[2-[[2-[2-[2-[[(4S)-4-carboxy-4-[[4-[(19-carboxynonadecanoylamino)methyl]cy … (peptide)
peptide: H[Aib]EGTFTSDVSSYLEEQAAREFIAWLVRGRGGSK([code LysOEG-AEEA-γGlu-Trx-C20 diacid)(OEG-AEEA-γGlu-Trx-C20 diacid])
modifications: reading uncertain; also: printed as [Aib8,Glu22,Arg26,Arg34]-GLP-1-(7-37)-peptidyl-Gly-Ser-N{Epsilon}[(2S)-2,6-bis[[2-[2-[2-[[2-[2-[2-[[(4S)-4-carboxy-4-[[4-[(19-carboxynonadecanoylamino)methyl]cyclohexanecarbonyl]amino]butanoyl]amino]ethoxy]ethoxy]acetyl]amino]ethoxy]ethoxy]acetyl]amino]hexanoyl]Lys
notes: as for B2

Legend:
human GLP-1 receptor [1] = biological target: T1, human GLP-1 receptor (human, UniProt P43220 24-463); assay: SPA competition vs 125I-GLP-1(7-36)NH2, hGLP-1R BHK membranes, low HSA
T1 construct: whole, on cells
Description: (§1) For the receptor binding assay in the presence of low HSA (0.005%) 50 μl of the assay buffer was added to each well of an assay plate. […] For the receptor binding assay in the presence of high HSA (2%) 50 μl of the 8% albumin stock was added to each well of an assay plate. […] Cell membrane aliquots were thawed and diluted to their working concentration. Fifty μl were added to each well in the assay plate. […] WGA SPA beads were suspended in assay buffer at 20 mg/ml. The suspension was diluted to 10 mg/ml in assay buffer just prior to addition to the assay plate. Fifty μl were added to each well in the assay plate. […] A 25 μl aliquot was reserved for measuring total counts/well. […] The assay plate was incubated for 2 h at 30° C. […] The assay plate was centrifuged for 10 min. […] The assay plate was read in a Packard TopCount NXT instrument.

human GLP-1 receptor [2] = biological target: T1, human GLP-1 receptor; assay: SPA competition vs 125I-GLP-1(7-36)NH2, hGLP-1R BHK membranes, high HSA (2.0%)
Description: as §1

human GLP-1 receptor [3] = biological target: T1, human GLP-1 receptor; assay: cell-based or functional assay

Binder	IC50 (human GLP-1 receptor [1]) [nM]	IC50 (human GLP-1 receptor [2]) [nM]	EC50 (pM), in vitro potency, CRE luciferase reporter gene assay in BHK cells expressing the human GLP-1 receptor (human GLP-1 receptor [3]) [pM]
B1	0.91	54	16
B2	1.93	59	87
B3	0.61	83	44
B4	0.99	28	99
B5	3.1	85	19
B6	3.2	63	12
B7	4.8	51	22
B8	2.9	68	14
B9	0.45	64	25
B10	1.7	27	13
B11	0.76	68	55
B12	2.9	50	15
B13	1.64	175	94
B14	0.9	78	70
B15	0.57	84	12
B16	0.74	25	51
